Measured values as given in PMC10950212, “Structure and antigenicity of the divergent human astrovirus VA1 capsid spike” (PLOS Pathogens, 2024).

Target: the molecule itself
Test: SEC; Superdex 200 increase 10/300; retention volume compared with Bio-Rad gel filtration standards; 20 mM Tris-HCl pH 8.0, 150 mM NaCl

B1: gastrointestinal HAstV-VA1 capsid spike (HAstV-VA1^gastro spike), residues 408-684 (domain or fragment)
chain: PIPPTGVPVGDFYVCGRMTTLHMGGQSGIQATTLVNGMIYRTDHPEPSTSPVSNWEFTVLENNTIVGAGMGCVWFQKSEALVWTLDGQKLSGWNTLDGVGTTQLTVAWRQHNRTIYGWANVVAWNSEEWHTNAEQPHQPILRLTYWLVKINVLSEPEDFDVVQKSPLAYLEDYTTAQSKSAIQKLNFQTFQKPEGGGTLRAQYSTTPRQGDFAVIWQIGRHNFDMSTGKGTPVESLSDYVMPQQKDAHIGMWYRALTSVGPRSDVLTLHFHLPTVEK
notes: Capsid precursor protein (VP86, ORF2) of human astrovirus VA1, gastrointestinal strain, NCBI YP_003090288.1, spike structural domain residues 408-684; C-terminal thrombin site and 10-histidine tag; tag removed with thrombin before SEC and crystallisation; Homodimer; also called VA1 Spike^Gastro; HAstV-VA1 spike; source: E. coli T7 Express, purified (TALON, thrombin digestion, SEC on Superdex 200 …)
  stoichiometry N: 2
